From US20260250420A1 (SICHUAN KELUN BIOTECH BIOPHARMACEUTICAL, published 2026)

T1: monkey PTK7 protein (extracellular sequence of monkey PTK7 with C-terminal 6×His tag) (monkey)
T1 chain: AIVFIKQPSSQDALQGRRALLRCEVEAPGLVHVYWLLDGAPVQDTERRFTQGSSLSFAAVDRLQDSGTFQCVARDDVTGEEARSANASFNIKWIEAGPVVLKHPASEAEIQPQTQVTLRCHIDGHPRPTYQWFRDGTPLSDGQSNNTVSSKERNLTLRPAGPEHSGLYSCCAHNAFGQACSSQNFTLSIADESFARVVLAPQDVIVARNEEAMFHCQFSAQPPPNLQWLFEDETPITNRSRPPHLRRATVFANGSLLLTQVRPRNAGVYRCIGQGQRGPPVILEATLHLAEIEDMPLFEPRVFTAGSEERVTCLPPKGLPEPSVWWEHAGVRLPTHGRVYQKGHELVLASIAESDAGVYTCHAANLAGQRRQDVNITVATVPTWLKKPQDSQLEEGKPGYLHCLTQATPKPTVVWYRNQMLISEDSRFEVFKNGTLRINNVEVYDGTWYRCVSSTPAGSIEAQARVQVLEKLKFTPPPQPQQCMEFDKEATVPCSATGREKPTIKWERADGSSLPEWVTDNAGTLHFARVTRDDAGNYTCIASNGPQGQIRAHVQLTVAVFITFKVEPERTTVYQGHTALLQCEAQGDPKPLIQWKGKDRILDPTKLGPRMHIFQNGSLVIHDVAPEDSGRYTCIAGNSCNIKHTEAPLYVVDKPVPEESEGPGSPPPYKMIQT

T2: human PTK7 on cells (tumor cells endogenously expressing PTK7); CHO-hPTK7, CHO-S-hPTK7 and 293T-hPTK7 … (human, UniProt Q13308 31-1070)
T2 construct: whole, on cells; The cell line of each value is named under assay; also called H1299; H358
T2 sequence (looked up): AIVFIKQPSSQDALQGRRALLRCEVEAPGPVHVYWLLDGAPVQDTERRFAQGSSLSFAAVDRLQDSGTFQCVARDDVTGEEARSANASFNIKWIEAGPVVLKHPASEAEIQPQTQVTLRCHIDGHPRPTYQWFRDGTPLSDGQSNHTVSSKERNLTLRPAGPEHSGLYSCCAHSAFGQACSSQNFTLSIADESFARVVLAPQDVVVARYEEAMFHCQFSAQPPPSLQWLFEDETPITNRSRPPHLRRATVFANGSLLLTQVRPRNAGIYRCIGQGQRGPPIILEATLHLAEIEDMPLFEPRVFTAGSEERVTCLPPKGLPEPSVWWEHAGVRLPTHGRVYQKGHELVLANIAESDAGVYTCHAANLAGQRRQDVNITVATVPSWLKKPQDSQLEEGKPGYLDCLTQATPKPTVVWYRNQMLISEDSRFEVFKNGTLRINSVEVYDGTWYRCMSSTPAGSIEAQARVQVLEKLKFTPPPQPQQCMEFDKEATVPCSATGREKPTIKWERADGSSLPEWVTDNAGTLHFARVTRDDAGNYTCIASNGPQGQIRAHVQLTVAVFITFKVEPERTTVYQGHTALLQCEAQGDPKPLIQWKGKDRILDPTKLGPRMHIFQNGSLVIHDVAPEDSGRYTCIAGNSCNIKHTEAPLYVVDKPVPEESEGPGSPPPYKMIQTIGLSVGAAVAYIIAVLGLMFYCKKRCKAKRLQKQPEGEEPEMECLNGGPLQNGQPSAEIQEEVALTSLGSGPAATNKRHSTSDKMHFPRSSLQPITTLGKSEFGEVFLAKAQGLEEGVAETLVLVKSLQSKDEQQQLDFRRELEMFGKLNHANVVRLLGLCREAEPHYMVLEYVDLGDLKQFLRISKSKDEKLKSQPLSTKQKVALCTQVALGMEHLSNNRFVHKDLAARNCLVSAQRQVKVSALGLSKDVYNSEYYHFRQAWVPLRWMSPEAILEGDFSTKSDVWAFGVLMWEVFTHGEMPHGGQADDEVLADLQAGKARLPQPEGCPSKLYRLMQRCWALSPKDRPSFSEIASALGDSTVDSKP


Key:
[1] = target: T1, monkey PTK7 protein (extracellular …); test: BLI (ForteBio), antibody on Protein A sensor, monkey PTK7 protein in solution
From the text: The dynamic affinity of the control Hu24 and candidate antibodies 64A10HZ, 101A6HZ, 4E12HZ and 19C2HZ with human PTK7-His was detected by using ForteBio (Pall life sciences).
ELISA and ForteBio were adopted to detect binding of the anti-human PTK7 chimeric and humanized antibodies to the monkey, mouse and rat PTK7 proteins.

[2] = target: T3, rat PTK7 protein (extracellular sequence of rat PTK7 with C-terminal 6×His tag) (rat, UniProt A0A8I6ALM9 40-713); test: ELISA, coated rat PTK7 protein
T3 construct: extracellular domain; Expressed transiently in HEK293 cells

[3] = target: T2, human PTK7 on cells (tumor cells …); test: flow cytometry on CHO-hPTK7 overexpression cells
From the text: A flow cytometer (Beckman, Cytoflex) was used for detecting the affinity of the anti-human PTK7 chimeric and humanized antibodies with human non-small cell lung cancer cells H1299, human lung adenocarcinoma cells H1975, human breast cancer cells T47D, human ovarian cancer cells OVCAR-3 (all purchased from NANJING COBIOER BIOSCIENCES CO., LTD) and CHO-hPTK7 overexpression cells.
The adherent cells were digested by using a pancreatin (Gibco) solution; a proper amount of cells were counted and taken, washed twice by using 1×PBS, and re-suspended in a 1% BSA solution; and then the cells were transferred into a 96-well deep plate at a density of 50 μl/well; a candidate antibody was diluted by using 1% BSA, then 50 μl of diluted antibody was added into the deep plate containing the cells, and incubated for 40 min at 4° C.; the cells were washed twice by using PBS, then 50 μl of diluted secondary antibody was added into each well, uniformly mixed, and incubated for 30 min at 4° C.; and the cells were washed twice by using PBS, then re-suspended in 400 μl of PBS, and subjected to examination by flow cytometer.

[4] = target: T4, human Fc receptor protein CD16a (human, UniProt P08637 17-208, biotinylated); test: BLI (ForteBio), biotinylated receptor on SA sensor, antibody from 5,000 nM, 1:1 global fit
T4 construct: Biotinylated protein captured on SA sensors
T4 sequence (P08637 17-208 limits assumed): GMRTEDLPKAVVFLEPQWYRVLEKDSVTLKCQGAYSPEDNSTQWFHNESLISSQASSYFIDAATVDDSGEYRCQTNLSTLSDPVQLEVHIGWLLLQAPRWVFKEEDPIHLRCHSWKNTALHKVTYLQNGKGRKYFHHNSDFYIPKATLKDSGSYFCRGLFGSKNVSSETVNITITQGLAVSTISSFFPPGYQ
From the text: (§1) The dynamic affinity of the antibodies 101A6HZ, 101A6HZm and Hu24 with human Fc receptor proteins CD16a, CD32a, CD32b, CD64 and FcRn was detected through ForteBio (Pall life sciences).

[5] = target: T5, human Fc receptor protein CD64 (human, UniProt P12314 16-292, limits assumed, biotinylated); test: as above
T5 construct: Biotinylated protein captured on SA sensors
T5 sequence (P12314 16-292 limits assumed): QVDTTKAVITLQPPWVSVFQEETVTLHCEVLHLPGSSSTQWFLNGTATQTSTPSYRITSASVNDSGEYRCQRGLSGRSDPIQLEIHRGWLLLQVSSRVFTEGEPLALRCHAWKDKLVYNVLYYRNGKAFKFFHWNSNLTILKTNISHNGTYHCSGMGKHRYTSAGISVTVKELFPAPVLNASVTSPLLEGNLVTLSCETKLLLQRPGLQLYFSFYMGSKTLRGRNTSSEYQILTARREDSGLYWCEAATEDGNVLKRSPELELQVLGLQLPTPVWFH
From the text: as §1

Kd [1] | binding result [2] | EC50 [3] | Kd [4] | Kd [5] | Binder
26.7 nM | no binding | – | – | – | 64A10HZ (anti-human PTK7 humanized antibody) (antibody, human IgG1, kappa, V domains shown, Human IgG1 heavy chain constant region and human Kappa light chain constant region; expressed in CHO-S cells) VH: QVQLQESGPGLVKPSETLSLTCTVSGFSLTSYGVYWVRQPPGKGPEWLGVIWTSGNTNYNPSLKSRLTISKDNSKNQVSLKLSSVTAADTAVYYCVKHDGGNYVGVMNYWGQGTLVTVSS VL: EIVMTQSPDFQSVTPKEKVTITCRASQSISDYLHWYQQKPDQSPKLLIKYASQSISGVPSRFSGSGSGSDFTLTINSLEAEDAATYYCQNGHSFPPTFGQGTKLEIKR
11.9 nM | – | 0.308 µg/mL | 1190 nM | 0.465 nM | Hu24 (PTK7 control antibody, taken from Hu24 in the Patent CN201580030255) (antibody) chain 1: QVQLVQSGPEVKKPGASVKVSCKASGYTFTDYAVHWVRQAPGKRLEWIGVISTYNDYTYNNQDFKGRVTMTRDTSASTAYMELSRLRSEDTAVYYCARGNSYFYALDYWGQGTSVTVSS chain 2: EIVLTQSPATLSLSPGERATLSCRASESVDSYGKSFMHWYQQKPGQAPRLLIYRASNLESGIPARFSGSGSGTDFTLTISSLEPEDFAVYYCQQSNEDPWTFGGGTKLEIK
134 nM | no binding | 0.176 µg/mL | 1010 nM | 0.508 nM | 101A6HZ (anti-human PTK7 humanized antibody) (antibody, human IgG1, kappa) heavy: not shown light: DIVMTQSPDSLAVSLGERATINCKASQDVGSAVIWYQQKPGQSPKLLIYWASTRHTGVPDRFSGSGSGTDFTLTISSLQAEDVAVYYCQQYSSYPLTFGQGTKLEIKRTVAAPSVFIFPPSDEQLKSGTASVVCLLNNFYPREAKVQWKVDNALQSGNSQESVTEQDSKDSTYSLSSTLTLSKADYEKHKVYACEVTHQGLSSPVTKSFNRGEC
